# Assay results from patent US20250353911A1 (INHIBRX BIOSCIENCES, published 2025).
# Key:
# [1] = biological target: T1, Rat serum albumin (RSA) (rat, UniProt P02770 25-608); assay: ELISA on coated rat albumin, anti-human Fc HRP, A650, one site-total binding fit
# T1 construct: Bought protein (Sigma); also called rat albumin
# Procedure: (§1) Medisorp plates were coated with albumin protein at 2 μg/ml, 50 μl/well at 4° C. overnight (human, murine, and rat albumin-Sigma, cynomolgus monkey albumin-Abcam). 1× Fish Gelatin (blocking agent, Bethyl Laboratories) was added to albumin-coated wells followed by a 1 hour incubation at RT. Titrations of sdAb fusion proteins (starting at 100 nM, across 1:3 or down 1:4) were added and incubated for 1 hour at RT. Plates were washed 3 times with 0.1% D-PBST, and then anti-human Fc HRP antibody (1:2000 in 0.1% D-PBST, Jackson) was added and incubated for 30 minutes at RT. Plates were washed 3 times with 0.1% D-PBST, and then TMB substrate was added. Absorbance at 650 nm was read on a plate reader (Molecular Devices) and data were plotted using equation one site-total binding (Model: Y=Bmax*X/(Kd+X)+NS*X+Background, GraphPad Prism).
# [2] = biological target: T1, Rat serum albumin (RSA); assay: as above; remark: listed apart in the source
# Procedure: as §1
# [3] = biological target: T2, Human serum albumin (HSA) (human, UniProt P02768 25-609); assay: ELISA on coated human albumin, anti-human Fc HRP, A650, one site-total binding fit
# T2 construct: also called human albumin; recombinant human albumin
# Procedure: as §1
# [4] = biological target: T2, Human serum albumin (HSA); assay: as above; remark: listed apart in the source
# Procedure: as §1
# [5] = biological target: T3, Murine serum albumin (MSA) (mouse, UniProt P07724 25-608); assay: ELISA on coated murine albumin, anti-human Fc HRP, A650, one site-total binding fit
# T3 construct: Bought protein (Sigma); also called murine albumin; mouse albumin
# Procedure: as §1
# [6] = biological target: T3, Murine serum albumin (MSA); assay: as above; remark: listed apart in the source
# Procedure: as §1
# [7] = biological target: T4, Cynomolgus monkey serum albumin (CSA) (cynomolgus monkey, UniProt A2V9Z4 25-608); assay: ELISA on coated cynomolgus monkey albumin, anti-human Fc HRP, A650, one site-total binding fit
# T4 construct: Bought protein (Abcam); also called cynomolgus monkey albumin
# Procedure: as §1
# [8] = biological target: T4, Cynomolgus monkey serum albumin (CSA); assay: as above; remark: listed apart in the source
# Procedure: as §1
# [9] = biological target: T5, Mouse Fc-tagged human albumin domain III (human, UniProt P02768 405-609, limits assumed); assay: biolayer interferometry, mouse Fc-tagged human albumin domain III (10 ug/ml) on anti-mouse IgG Fc biosensor, pH 5
# T5 construct: also called albumin domain 3 (mouse Fc tagged); albumin domain 3; not shown: mouse Fc tag
# [10] = biological target: T2, Human serum albumin (HSA); assay: ELISA, albumin coated, sdAb fusion titrated, anti-human Fc HRP
# Procedure: as §1
# [11] = biological target: T3, Murine serum albumin (MSA); assay: as above
# Procedure: as §1
# [12] = biological target: T4, Cynomolgus monkey serum albumin (CSA); assay: as above
# Procedure: as §1
# [13] = biological target: T1, Rat serum albumin (RSA); assay: as above
# Procedure: as §1
# [14] = biological target: T2, Human serum albumin (HSA); assay: ELISA on coated human albumin, pH 7.4, HRP detection antibody, A450
# Procedure: (§2) 96-well ELISA plates were coated with albumin protein in PBS overnight at 4° C., washed with PBS-T and then blocked with 5% milk powder in PBS-T for 1 h at room temperature. Serial dilutions of test articles were prepared in PBS pH 7.4 or a buffer containing 20 mM His, 150 mM NaCl, pH 5.5 and added to the plates. Plates were incubated for 1 h at room temperature. After the incubation cells were washed in the respective buffer and then incubated for 30 min at room temperature with a HRP-conjugated antibody detecting the polypeptides. Plates were washed in their respective buffers and TMB substrate was added and color allowed to develop. TMB substrate was stopped with an equal volume of stop solution (1M H₂SO₄). Absorbance at 450 nm was measured with a 96 well plate reader.
# [15] = biological target: T2, Human serum albumin (HSA); assay: ELISA on coated human albumin, pH 5.5, HRP detection antibody, A450
# Procedure: as §2
# [16] = biological target: T2, Human serum albumin (HSA); assay: as above; remark: listed apart in the source
# Procedure: as §2
# [17] = biological target: T6, human FcRn on primary human monocytes (PBMC) (human, UniProt P55899 24-365; P16213 21-119); assay: flow cytometry, fixed and permeabilized human PBMC, gated monocytes, pH 6, AF647 detection antibody
# T6 construct: Endogenous FcRn (with endogenous beta-2 microglobulin) in fixed and permeabilized human PBMC; also called FcRn-expressing human monocytes; FcRn on PBMC subpopulations
# Procedure: (§3) Isolated human PBMC were plated in 96-well plates at 120,000 cells per well and washed with PBS, pH 7.4. Cells were stained with Zombie Aqua to exclude dead cells and with specific fluorescently labeled antibodies against surface lineage markers (CD14, CD16, CD3, CD56, CD19 and HLA-DR) to allow gating on different PBMC subpopulations. After the surface marker staining, cells were fixed and permeabilized using a Foxp3/Transcription Factor Fixation/Permeabilization kit (eBioscience™) according to the manufacturer's recommended protocol. Cells were then resuspended in the buffers described above to generate pH 7.4 or pH 6 conditions and test article staining was carried out as described for CHO cells. After the final wash, binding to FcRn on PBMC subpopulations (Monocytes, B cells or T cells) was measured on a Novocyte-Quanteon Flow Cytometer (Agilent).
# [18] = biological target: T6, human FcRn on primary human monocytes …; assay: flow cytometry, fixed and permeabilized human PBMC, gated monocytes, pH 7.4, AF647 detection antibody
# Procedure: as §3
# [19] = biological target: T7, human FcRn extracellular domain (ECD) fused to a transmembrane domain and an intracellular citrine, with … (human); assay: flow cytometry, CHO cells transiently expressing human FcRn ECD-TM-citrine and B2M, pH 6, AF647 detection antibody
# T7 construct: also called human FcRn overexpressed on CHO cells; FcRn transfected CHO cells
# Procedure: (§4) Binding of anti-FcRn VHH polypeptides to human FcRn at neutral (7.4) or endosomal (6) pH was tested by flow cytometry using a CHO-based overexpression system or isolated human peripheral blood mononuclear cells (PBMC).
# (§5) CHO cells were plated in 96-well plates at 50,000 cells per well and resuspended in PBS, pH 7.4 or a buffer containing 20 mM His, 150 mM NaCl, pH 6. Serial dilutions of test articles were prepared at 2× the final concentration in the buffers described above (pH 7.4 or pH 6) and added to the cell suspensions. Plates were incubated for 60 minutes at 4° C. After the incubation cells were washed in the respective buffer and then incubated for 30 minutes at 4° C. with a fluorescently labeled (AF647) antibody detecting the VHH polypeptides. Binding of the detection antibody to FcRn on transfected cells (citrine positive) was measured after a final wash using an iQue Screener (Sartorius).
# [20] = biological target: T7, human FcRn extracellular domain (ECD) …; assay: as above; remark: listed apart in the source
# Procedure: as §4, §5
# [21] = biological target: T7, human FcRn extracellular domain (ECD) …; assay: flow cytometry, CHO cells transiently expressing human FcRn ECD-TM-citrine and B2M, pH 7.4, AF647 detection antibody
# Procedure: as §4, §5
# [22] = biological target: T7, human FcRn extracellular domain (ECD) …; assay: as above; remark: listed apart in the source
# Procedure: as §4, §5
# [23] = biological target: T8, human FcRn/B2m heterodimer protein (human, UniProt P55899 24-297; P61769 21-119, limits assumed); assay: ELISA on coated human FcRn/B2m heterodimer, pH 7.4, HRP detection antibody, A450
# T8 construct: also called FcRn (ELISA)
# Procedure: 96-well ELISA plates were coated with human FcRn/B2m heterodimer protein in PBS overnight at 4° C., washed with PBST and then blocked with 3% BSA in PBST for 1 h at RT. Serial dilutions of test articles were prepared in PBST pH 7.4 and added to the plates. Plates were incubated for 1 h at room temperature. After the incubation cells were washed in the PBST and then incubated for 1 h at room temperature with a horse radish peroxidase (HRP)-conjugated antibody detecting the polypeptides. Plates were washed with PBS-T followed by addition of TMB substrate and color allowed to develop. TMB substrate was stopped with an equal volume of stop solution (1M H₂SO₄). Absorbance at 450 nm was measured with a 96 well plate reader (Emax, Molecular Devices). All data were plotted and analyzed using GraphPad Prism analysis software.
# [24] = biological target: T7, human FcRn extracellular domain (ECD) …; assay: flow cytometry, HEK 293 cells transiently expressing human FcRn ECD-TM-citrine and B2M, pH 6; blocked ligand: biotinylated human IgG at 1 µM, detected with streptavidin-AF647
# Procedure: 50,000 transiently transfected HEK 293 cells were plated in 96-well plates and resuspended in 20 mM His, 150 mM NaCl, pH 6. Serial dilutions of test articles were prepared at 2× the final concentration in the buffer described above and added to the cell suspensions. Plates were incubated for 60 minutes at 4° C. […] Cells were then washed in the buffer described above and subsequently incubated for 30 minutes at 4° C. with a fluorescently labeled (AF647) streptavidin to detect IgG binding to FcRn. Binding of streptavidin to cells expressing FcRn (citrine positive) was measured after a final wash using an iQue Screener (Sartorius). The data were plotted and analyzed using GraphPad Prism analysis software.
# T2 sequence (P02768 25-609): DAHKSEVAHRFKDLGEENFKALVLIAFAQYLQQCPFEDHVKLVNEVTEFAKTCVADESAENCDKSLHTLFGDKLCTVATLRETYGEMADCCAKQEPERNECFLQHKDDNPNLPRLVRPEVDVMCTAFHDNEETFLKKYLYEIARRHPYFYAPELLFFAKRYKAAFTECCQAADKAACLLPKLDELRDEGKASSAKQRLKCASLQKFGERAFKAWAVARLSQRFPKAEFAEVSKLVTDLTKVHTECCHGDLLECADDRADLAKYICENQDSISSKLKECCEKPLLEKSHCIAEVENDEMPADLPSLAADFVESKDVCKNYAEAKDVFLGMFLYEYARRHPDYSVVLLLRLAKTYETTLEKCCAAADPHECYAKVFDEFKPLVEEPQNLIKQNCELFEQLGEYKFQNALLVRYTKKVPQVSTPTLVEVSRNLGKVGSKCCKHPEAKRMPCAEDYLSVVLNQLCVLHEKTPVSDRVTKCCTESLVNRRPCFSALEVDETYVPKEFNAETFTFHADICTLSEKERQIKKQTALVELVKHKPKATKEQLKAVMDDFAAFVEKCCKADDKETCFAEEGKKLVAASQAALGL
# T4 sequence (A2V9Z4 25-608): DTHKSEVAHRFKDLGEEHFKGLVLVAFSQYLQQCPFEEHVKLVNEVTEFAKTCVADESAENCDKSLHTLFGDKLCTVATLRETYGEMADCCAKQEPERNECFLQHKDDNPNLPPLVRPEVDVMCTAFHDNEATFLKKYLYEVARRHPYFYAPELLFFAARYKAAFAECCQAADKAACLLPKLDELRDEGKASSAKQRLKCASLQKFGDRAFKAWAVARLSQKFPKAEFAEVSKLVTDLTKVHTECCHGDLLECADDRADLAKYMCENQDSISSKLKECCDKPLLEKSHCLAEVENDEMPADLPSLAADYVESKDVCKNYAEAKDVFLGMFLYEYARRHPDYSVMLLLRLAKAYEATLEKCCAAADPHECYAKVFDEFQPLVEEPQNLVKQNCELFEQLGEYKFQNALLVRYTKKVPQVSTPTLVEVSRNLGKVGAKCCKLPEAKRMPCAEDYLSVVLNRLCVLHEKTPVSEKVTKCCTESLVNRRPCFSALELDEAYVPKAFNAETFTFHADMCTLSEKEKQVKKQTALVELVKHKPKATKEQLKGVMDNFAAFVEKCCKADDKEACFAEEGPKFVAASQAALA
# T1 sequence (P02770 25-608): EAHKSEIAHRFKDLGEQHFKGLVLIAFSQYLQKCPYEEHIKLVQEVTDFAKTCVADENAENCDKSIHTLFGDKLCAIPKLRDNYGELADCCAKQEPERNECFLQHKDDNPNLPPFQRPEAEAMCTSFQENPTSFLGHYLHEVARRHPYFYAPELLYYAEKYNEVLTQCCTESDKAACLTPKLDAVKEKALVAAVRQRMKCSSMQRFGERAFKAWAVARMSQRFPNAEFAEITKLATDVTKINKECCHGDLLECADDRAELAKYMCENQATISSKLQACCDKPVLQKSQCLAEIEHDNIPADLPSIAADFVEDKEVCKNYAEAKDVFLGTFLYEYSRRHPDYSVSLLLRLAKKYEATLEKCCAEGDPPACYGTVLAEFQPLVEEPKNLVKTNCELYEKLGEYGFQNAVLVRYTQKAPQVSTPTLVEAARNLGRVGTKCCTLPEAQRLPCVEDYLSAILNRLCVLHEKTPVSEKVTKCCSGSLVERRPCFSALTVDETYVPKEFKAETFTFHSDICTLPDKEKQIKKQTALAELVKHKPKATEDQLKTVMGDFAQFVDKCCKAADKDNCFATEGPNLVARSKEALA
# T7 sequence (chain, as listed by the source limits assumed, chain 1 of 2): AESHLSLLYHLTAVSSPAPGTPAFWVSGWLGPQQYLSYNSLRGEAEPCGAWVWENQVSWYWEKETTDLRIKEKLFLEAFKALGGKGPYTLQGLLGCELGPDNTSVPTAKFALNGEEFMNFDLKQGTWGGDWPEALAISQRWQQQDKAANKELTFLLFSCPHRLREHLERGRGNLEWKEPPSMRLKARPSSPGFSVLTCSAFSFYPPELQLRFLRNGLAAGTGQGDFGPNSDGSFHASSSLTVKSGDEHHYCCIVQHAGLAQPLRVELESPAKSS
# T7 sequence (b2m, as listed by the source limits assumed, chain 2 of 2): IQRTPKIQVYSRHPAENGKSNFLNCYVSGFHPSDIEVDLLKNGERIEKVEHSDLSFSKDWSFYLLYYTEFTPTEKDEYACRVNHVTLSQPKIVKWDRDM
# T6 sequence (P55899 24-365 limits assumed, chain 1 of 2): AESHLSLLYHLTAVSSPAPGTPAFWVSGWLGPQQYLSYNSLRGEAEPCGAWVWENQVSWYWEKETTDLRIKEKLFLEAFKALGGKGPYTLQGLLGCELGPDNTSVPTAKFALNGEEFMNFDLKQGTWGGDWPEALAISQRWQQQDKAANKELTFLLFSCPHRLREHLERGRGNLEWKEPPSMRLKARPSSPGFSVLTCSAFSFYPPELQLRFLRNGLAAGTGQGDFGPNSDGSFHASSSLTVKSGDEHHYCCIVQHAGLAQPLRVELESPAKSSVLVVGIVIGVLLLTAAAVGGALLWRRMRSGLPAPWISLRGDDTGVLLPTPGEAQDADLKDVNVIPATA
# T6 sequence (P16213 21-119 limits assumed, chain 2 of 2): as the sequence (b2m, as listed by the source limits assumed, chain 2 of 2) above
# T8 sequence (P55899 24-297 limits assumed, chain 1 of 2): as the sequence (chain, as listed by the source limits assumed, chain 1 of 2) above
# T8 sequence (P61769 21-119 limits assumed, chain 2 of 2): as the sequence (b2m, as listed by the source limits assumed, chain 2 of 2) above
# T5 sequence (P02768 405-609 limits assumed): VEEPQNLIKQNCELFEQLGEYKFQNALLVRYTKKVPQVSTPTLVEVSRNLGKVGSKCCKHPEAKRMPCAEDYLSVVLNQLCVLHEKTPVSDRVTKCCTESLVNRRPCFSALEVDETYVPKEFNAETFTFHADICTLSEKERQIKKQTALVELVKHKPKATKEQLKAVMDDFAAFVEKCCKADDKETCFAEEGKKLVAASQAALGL
binder,measurement,setting,value
"4A01-NNT-hFc (Fc fusion, Monomeric sdAb-Fc fusion (Fc S364N, Y407N, K409T = NNT); also called 1m4A01; anti-albumin sdAb 4A01) QVQLQESGGGLVQPGGSLRLSCAASGFAFSTSGMVWVRQATGKGLEWVSTISDDSRIIRYADSVNGRFTISRDNAENTLYLLMNSLKPEDTAVYYCATYRAGSRIGSYEDYYRGQGTQVTVSSGGPSVFLFPPKPKDTLMISRTPEVTCVVVDVSHEDPEVKFNWYVDGVEVHNAKTKPREEQYNSTYRVVSVLTVLHQDWLNGKEYKCKVSNKALPAPIEKTISKAKGQPREPQVYTLPPSRDELTKNQVNLTCLVKGFYPSDIAVEWESNGQPENNYKTTPPVLDSDGSFFLNSTLTVDKSRWQQGNVFSCSVMHEALHNHYTQKSLSLSPG",Bmax,[1],1.24 A650
same,Kd,[1],0.144 nM
same,Kd,[2],0.182 nM
same,Bmax,[3],1.34 A650
same,Kd,[3],0.105 nM
same,Kd,[4],0.171 nM
same,Bmax,[5],1.26 A650
same,Kd,[5],0.114 nM
same,Kd,[6],0.193 nM
same,Bmax,[7],1.27 A650
same,Kd,[7],0.113 nM
same,Kd,[8],0.162 nM
same,binding result,[9],no binding
"cx5009 (hz4A01v51-NNT-hFc) (Fc fusion, also called humanized hz4A01v51; hx4A01v51) EVQLVESGGGEVQPGGSLRLSCAASGFTFSTSGMVWVRQAPGKGLEWVSTISDDARITVYAESVKGRFTISRDNAKNTVYLQMNSLRAEDTAVYYCATYRAGSRIGSYEDYYRGQGTLVTVKPGGGGPSVFLFPPKPKDTLMISRTPEVTCVVVDVSHEDPEVKFNWYVDGVEVHNAKTKPREEQYNSTYRVVSVLTVLHQDWLNGKEYKCKVSNKALPAPIEKTISKAKGQPREPQVYTLPPSRDELTKNQVNLTCLVKGFYPSDIAVEWESNGQPENNYKTTPPVLDSDGSFFLNSTLTVDKSRWQQGNVFSCSVMHEALHNHYTQKSLSLSPGSGGGGSGGGGS",Kd,[10],< 0.3 nM
same,maximal binding,[10],> 90%
same,Kd,[11],< 0.3 nM
same,maximal binding,[11],> 90%
same,Kd,[12],< 0.3 nM
same,maximal binding,[12],> 90%
same,Kd,[13],< 0.3 nM
same,maximal binding,[13],> 90%
same,Kd,[2],0.234 nM
same,Kd,[4],0.195 nM
same,Kd,[6],0.207 nM
same,Kd,[8],0.189 nM
cx11558 (B10a.v2.1 VHH x hz4A01v51 VHH) (bispecific antibody) EVQLLESGGGEVQPGGSLRLSCAASGSIANVDLMAWHRQAPGKQREPIAVINDAGSTYYAESVKGRFTISRDNAKNTLYLQMNSLRAEDTAVYYCNTATWRGGERYADWGQGTLVTVKPGSGGGSEVQLVESGGGEVQPGGSLRLSCAASGFTFSTSGMVWVRQAPGKGLEWVSTISDDARITVYAESVKGRFTISRDNAKNTVYLQMNSLRAEDTAVYYCATYRAGSRIGSYEDYYRGQGTLVTVKPGG,EC50 (read off the curve),[14],~0.3 nM
same,EC50 (read off the curve),[15],~0.06 nM
same,EC50 (read off the curve),[16],~0.06 nM
same,EC50 (read off the curve),[17],~5 nM
same,EC50 (read off the curve),[18],~4 nM
same,EC50 (read off the curve),[19],~0.4 nM
same,EC50 (read off the curve),[20],~0.4 nM
same,EC50 (read off the curve),[21],~0.5 nM
same,EC50 (read off the curve),[22],~0.5 nM
cx11385 (B10a.v1 VHH x B10a.v1 VHH x hz4A01v51 VHH) (bispecific antibody) EVQLLESGGGEVQPGGSLRLSCTASGSIANVDMMAWHRQAPGKQREPIAVINDGGSTSYADSVKGRFTISRDNAKNTLYLQMSSLRAEDTAVYYCNTATWRGGERYADWGQGTLVTVKPGSGGGSEVQLLESGGGEVQPGGSLRLSCTASGSIANVDMMAWHRQAPGKQREPIAVINDGGSTSYADSVKGRFTISRDNAKNTLYLQMSSLRAEDTAVYYCNTATWRGGERYADWGQGTLVTVKPGSGGGSEVQLVESGGGEVQPGGSLRLSCAASGFTFSTSGMVWVRQAPGKGLEWVSTISDDARITVYAESVKGRFTISRDNAKNTVYLQMNSLRAEDTAVYYCATYRAGSRIGSYEDYYRGQGTLVTVKPGG,EC50 (read off the curve),[23],~0.07 nM
same,IC50 (read off the curve),[24],~3 nM
